Measurements as given in article PMC8423306, “Coordinated action of multiple transporters in the acquisition of essential cationic amino acids by the intracellular parasite Toxoplasma gondii” (PLoS Pathogens, 2021).

Assays:
TgApiAT6-1 [1] = target: T1, TgApiAT6-1 (Toxoplasma gondii, UniProt A0A125YQS6); experiment: inhibition of […]Arg uptake at […] and trans-stimulation of Arg efflux in Xenopus oocytes; assay type: cell-based
T1 construct: gene ApiAT6-1; HA-tagged TgApiAT6-1 open reading frame expressed in Xenopus laevis oocytes
T1 sequence (A0A125YQS6 1-566): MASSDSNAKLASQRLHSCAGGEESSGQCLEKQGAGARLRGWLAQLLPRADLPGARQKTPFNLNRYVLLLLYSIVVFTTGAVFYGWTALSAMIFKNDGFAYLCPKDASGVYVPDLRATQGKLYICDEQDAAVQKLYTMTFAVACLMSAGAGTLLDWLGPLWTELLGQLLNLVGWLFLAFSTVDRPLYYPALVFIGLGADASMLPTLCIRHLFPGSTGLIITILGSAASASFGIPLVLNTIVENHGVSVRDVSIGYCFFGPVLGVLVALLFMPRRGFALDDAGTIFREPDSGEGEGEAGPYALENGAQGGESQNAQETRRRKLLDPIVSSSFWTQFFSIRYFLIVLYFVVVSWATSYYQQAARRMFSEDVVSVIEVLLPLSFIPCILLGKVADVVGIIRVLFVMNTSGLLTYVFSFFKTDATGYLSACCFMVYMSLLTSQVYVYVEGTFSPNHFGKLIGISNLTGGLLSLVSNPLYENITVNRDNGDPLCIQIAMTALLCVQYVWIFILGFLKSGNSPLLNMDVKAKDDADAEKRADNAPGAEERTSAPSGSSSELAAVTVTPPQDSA

TgApiAT6-1 [2] = target: T1, TgApiAT6-1; experiment: radiolabelled uptake in Xenopus oocytes; inhibition of Arg uptake at […]; trans-stimulation; assay type: cell-based
TgApiAT6-1 [3] = target: T1, TgApiAT6-1; experiment: inhibition of […]Arg uptake at […] and trans-stimulation of Arg uptake in Xenopus oocytes; assay type: cell-based
[4] = substrate: N=C(N)NCCC[C@H](N)C(=O)O; experiment: cells, lysate or membranes; assay type: cell-based, Toxoplasma gondii; conditions: same binding site as Lys
[5] = substrate: NCCCC[C@H](N)C(=O)O; experiment: cells, lysate or membranes; assay type: cell-based, Toxoplasma gondii; conditions: same binding site as Arg; competitive with Arg

## N[C@@H](Cc1c[nH]cn1)C(=O)O [His, histidine]
TgApiAT6-1 [1]
  inhibition of [14C]Arg uptake at 10 mM and trans-stimulation of Arg efflux in Xe: numerous neutral amino acids including Met, Leu, Phe and His partially inhibited Arg uptake

## CC(C)C[C@H](N)C(=O)O [Leu, leucine]
TgApiAT6-1 [2]
  radiolabelled uptake in Xenopus oocytes; inhibition of Arg uptake at 10 mM; tran: TgApiAT6-1 also mediated uptake of Arg and some neutral amino acids including Met and Leu

## CSCC[C@H](N)C(=O)O [Met, methionine]
TgApiAT6-1 [2]
  radiolabelled uptake in Xenopus oocytes; inhibition of Arg uptake at 10 mM; tran: TgApiAT6-1 also mediated uptake of Arg and some neutral amino acids including Met and Leu

## N[C@@H](Cc1ccccc1)C(=O)O [Phe, phenylalanine]
TgApiAT6-1 [3]
  inhibition of [14C]Arg uptake at 10 mM and trans-stimulation of Arg uptake in Xe: numerous neutral amino acids including Met, Leu, Phe and His partially inhibited Arg uptake

B1: TgApiAT6-1 (Toxoplasma gondii ME49) (protein)
chain: T1 sequence (A0A125YQS6 1-566)
notes: HA-tagged TgApiAT6-1 open reading frame expressed in Xenopus laevis oocytes
[4]
  K0.5: 748 µM
  kcat: 0.28 ± 0.1 s⁻¹
  kcat/Km: 379 M⁻¹ s⁻¹
[5]
  K0.5: 22.8 µM
  kcat: 0.042 ± 0.004 s⁻¹
  kcat/Km: 1840 M⁻¹ s⁻¹
